Results from IntAct's records for PubMed 31515488.

B1: Nucleoside diphosphate kinase homolog 5 (Homo sapiens), P56597 (parent)
chain: MEISMPPPQIYVEKTLAIIKPDIVDKEEEIQDIILRSGFTIVQRRKLRLSPEQCSNFYVEKYGKMFFPNLTAYMSSGPLVAMILARHKAISYWLELLGPNNSLVAKETHPDSLRAIYGTDDLRNALHGSNDFAAAEREIRFMFPEVIVEPIPIGQAAKDYLNLHIMPTLLEGLTELCKQKPADPLIWLADWLLKNNPNKPKLCHHPIVEEPY
B2: Cyclin-D1-binding protein 1 (Homo sapiens), O95273 (parent)
chain: MASATAPAAAVPTLASPLEQLRHLAEELRLLLPRVRVGEAQETTEEFNREMFWRRLNEAAVTVSREATTLTIVFSQLPLPSPQETQKFCEQVHAAIKAFIAVYYLLPKDQGITLRKLVRGATLDIVDGMAQLMEVLSVTPTQSPENNDLISYNSVWVACQQMPQIPRDNKAAALLMLTKNVDFVKDAHEEMEQAVEECDPYSGLLNDTEENNSDNHNHEDDVLGFPSNQDLYWSEDDQELIIPCLALVRASKACLKKIRMLVAENGKKDQVAQLDDIVDISDEISPSVDDLALSIYPPMCHLTVRINSAKLVSVLKKALEITKASHVTPQPEDSWIPLLINAIDHCMNRIKELTQSELEL
partner: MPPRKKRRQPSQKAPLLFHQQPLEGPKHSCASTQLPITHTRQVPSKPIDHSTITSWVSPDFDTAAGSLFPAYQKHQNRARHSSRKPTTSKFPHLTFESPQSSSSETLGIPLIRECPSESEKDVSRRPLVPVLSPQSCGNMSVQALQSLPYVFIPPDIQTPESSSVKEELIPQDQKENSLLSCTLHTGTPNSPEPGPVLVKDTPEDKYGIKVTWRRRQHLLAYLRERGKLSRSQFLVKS
B3: Zyxin (Homo sapiens), Q15942 (parent)
chain: MAAPRPSPAISVSVSAPAFYAPQKKFGPVVAPKPKVNPFRPGDSEPPPAPGAQRAQMGRVGEIPPPPPEDFPLPPPPLAGDGDDAEGALGGAFPPPPPPIEESFPPAPLEEEIFPSPPPPPEEEGGPEAPIPPPPQPREKVSSIDLEIDSLSSLLDDMTKNDPFKARVSSGYVPPPVATPFSSKSSTKPAAGGTAPLPPWKSPSSSQPLPQVPAPAQSQTQFHVQPQPQPKPQVQLHVQSQTQPVSLANTQPRGPPASSPAPAPKFSPVTPKFTPVASKFSPGAPGGSGSQPNQKLGHPEALSAGTGSPQPPSFTYAQQREKPRVQEKQHPVPPPAQNQNQVRSPGAPGPLTLKEVEELEQLTQQLMQDMEHPQRQNVAVNELCGRCHQPLARAQPAVRALGQLFHIACFTCHQCAQQLQGQQFYSLEGAPYCEGCYTDTLEKCNTCGEPITDRMLRATGKAYHPHCFTCVVCARPLEGTSFIVDQANRPHCVPDYHKQYAPRCSVCSEPIMPEPGRDETVRVVALDKNFHMKCYKCEDCGKPLSIEADDNGCFPLDGHVLCRKCHTARAQT
B4: Coiled-coil domain-containing protein 185 (Homo sapiens), Q8N715 (parent)
chain: MAGFSHFSQPPYRDLWEPPRPGGERESTQRLGGQRSGADSTACSRAGTPGAESEAGACWLHPHCSFTPRPRRRGCSDSLRGSRSLSDVARRPLERSRKHRPRSRRLEDAWGETGTKPRPAWQPQTQLPPQRPQPCPHYPLAQGDSPPPCPGGAGTPLSGTFRVEKAQGGDQWAVPLGRHLGRWSPSSVPSERSSVPSQKFKRHSACVCAQKRDSSDQVESLASRDSQPLASSKEMRSPHTQVLKSKLEEVVVSSQDQQIVALVLTRLKKAQRIRELQQQAAKAWEELKRSDQKVQMTLERERRLLLRQSQEQWQEKEQRKTLQSPEQRGLRRDSQRKNVPPGESRWKEQPEDQESPRQEKLEKARAQAEHRKQCQVRRLREQEKMLRNLREQHSLQLQRRLVEACRKRHLHAVEGQKKVQDTNLSSLINYQARKVLMDCQAKAEELLRQLSLEQSFQRSQEIHQGLRKERQRELREKAQKEEEQLQQARWRAGESEEQRKMRKRILVELADEKIRQARSHVHKTTRDKVQHLRELNHLREKNHHILKLKAEKEEKCHIEGIKEAIKKKEQRVQHISQGKDPNFQEFQKLPQASRREERAPPNSSLDQMVLEAQLRACQQNRGY
partner: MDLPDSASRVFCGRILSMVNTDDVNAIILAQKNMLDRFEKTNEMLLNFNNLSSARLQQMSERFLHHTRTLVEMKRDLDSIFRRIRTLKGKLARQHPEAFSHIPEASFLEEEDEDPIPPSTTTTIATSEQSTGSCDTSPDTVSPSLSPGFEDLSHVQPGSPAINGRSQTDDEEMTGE
B5: Protein FAM200C (Homo sapiens), Q8IZ13 (parent)
chain: MSKKRKWDDDYVRYWFTCTTEVDGTQRPQCVLCNSVFSNADLRPSKLSDHFNRQHGGVAGHDLNSLKHMPAPSDQSETLKAFGVASHEDTLLQASYQFAYLCAKEKNPHTVAEKLVKPCALEIAQIVLGPDAQKKLQQVPLSDDVIHSRIDEMSQDILQQVLEDIKASPLKVGIQLAETTDMDDCSQLMAFVRYIKEREIVEEFLFCEPLQLSMKGIDVFNLFRDFFLKHKIALDVCGSVCTDGASSMLGENSEFVAYVKKEIPHIVVTHCLLNPHALVIKTLPTKLRDALFTVVRVINFIKGRAPNHRLFQAFFEEIGIEYSVLLFHTEMRWLSRGQILTHIFEMYEEINQFLHHKSSNLVDGFENKEFKIHLAYLADLFKHLNELSASMQRTGMNTVSAREKLSAFVRKFPFWQKRIEKRNFTNFPFLEEIIVSDNEGIFIAAEITLHLQQLSNFFHGYFSIGDLNEASKWILDPFLFNIDFVDDSYLMKNDLAELRASGQILMEFETMKLEDFWCAQFTAFPNLAKTALEILMPFATTYLCELGFSSLLHFKTKSRSCFNLSDDIRVAISKKVPRFSDIIEQKLQLQQKSL
partner: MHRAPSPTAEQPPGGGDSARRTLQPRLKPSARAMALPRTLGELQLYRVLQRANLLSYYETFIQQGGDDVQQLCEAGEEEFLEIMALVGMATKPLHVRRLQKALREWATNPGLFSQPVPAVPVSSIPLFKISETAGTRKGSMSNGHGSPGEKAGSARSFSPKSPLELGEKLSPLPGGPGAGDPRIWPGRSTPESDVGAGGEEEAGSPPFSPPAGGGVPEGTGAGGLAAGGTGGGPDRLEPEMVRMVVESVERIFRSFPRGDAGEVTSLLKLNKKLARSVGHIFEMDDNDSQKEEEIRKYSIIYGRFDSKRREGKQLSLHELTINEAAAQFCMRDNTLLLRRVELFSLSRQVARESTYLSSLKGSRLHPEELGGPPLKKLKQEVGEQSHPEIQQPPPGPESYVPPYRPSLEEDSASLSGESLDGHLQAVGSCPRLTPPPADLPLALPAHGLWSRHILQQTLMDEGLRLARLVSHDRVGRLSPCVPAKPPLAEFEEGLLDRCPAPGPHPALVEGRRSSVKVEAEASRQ
B6: Modulator of apoptosis 1 (Homo sapiens), Q96BY2 (parent)
chain: MTLRLLEDWCRGMDMNPRKALLIAGISQSCSVAEIEEALQAGLAPLGEYRLLGRMFRRDENRKVALVGLTAETSHALVPKEIPGKGGIWRVIFKPPDPDNTFLSRLNEFLAGEGMTVGELSRALGHENGSLDPEQGMIPEMWAPMLAQALEALQPALQCLKYKKLRVFSGRESPEPGEEEFGRWMFHTTQMIKAWQVPDVEKRRRLLESLRGPALDVIRVLKINNPLITVDECLQALEEVFGVTDNPRELQVKYLTTYQKDEEKLSAYVLRLEPLLQKLVQRGAIERDAVNQARLDQVIAGAVHKTIRRELNLPEDGPAPGFLQLLVLIKDYEAAEEEEALLQAILEGNFT
partner: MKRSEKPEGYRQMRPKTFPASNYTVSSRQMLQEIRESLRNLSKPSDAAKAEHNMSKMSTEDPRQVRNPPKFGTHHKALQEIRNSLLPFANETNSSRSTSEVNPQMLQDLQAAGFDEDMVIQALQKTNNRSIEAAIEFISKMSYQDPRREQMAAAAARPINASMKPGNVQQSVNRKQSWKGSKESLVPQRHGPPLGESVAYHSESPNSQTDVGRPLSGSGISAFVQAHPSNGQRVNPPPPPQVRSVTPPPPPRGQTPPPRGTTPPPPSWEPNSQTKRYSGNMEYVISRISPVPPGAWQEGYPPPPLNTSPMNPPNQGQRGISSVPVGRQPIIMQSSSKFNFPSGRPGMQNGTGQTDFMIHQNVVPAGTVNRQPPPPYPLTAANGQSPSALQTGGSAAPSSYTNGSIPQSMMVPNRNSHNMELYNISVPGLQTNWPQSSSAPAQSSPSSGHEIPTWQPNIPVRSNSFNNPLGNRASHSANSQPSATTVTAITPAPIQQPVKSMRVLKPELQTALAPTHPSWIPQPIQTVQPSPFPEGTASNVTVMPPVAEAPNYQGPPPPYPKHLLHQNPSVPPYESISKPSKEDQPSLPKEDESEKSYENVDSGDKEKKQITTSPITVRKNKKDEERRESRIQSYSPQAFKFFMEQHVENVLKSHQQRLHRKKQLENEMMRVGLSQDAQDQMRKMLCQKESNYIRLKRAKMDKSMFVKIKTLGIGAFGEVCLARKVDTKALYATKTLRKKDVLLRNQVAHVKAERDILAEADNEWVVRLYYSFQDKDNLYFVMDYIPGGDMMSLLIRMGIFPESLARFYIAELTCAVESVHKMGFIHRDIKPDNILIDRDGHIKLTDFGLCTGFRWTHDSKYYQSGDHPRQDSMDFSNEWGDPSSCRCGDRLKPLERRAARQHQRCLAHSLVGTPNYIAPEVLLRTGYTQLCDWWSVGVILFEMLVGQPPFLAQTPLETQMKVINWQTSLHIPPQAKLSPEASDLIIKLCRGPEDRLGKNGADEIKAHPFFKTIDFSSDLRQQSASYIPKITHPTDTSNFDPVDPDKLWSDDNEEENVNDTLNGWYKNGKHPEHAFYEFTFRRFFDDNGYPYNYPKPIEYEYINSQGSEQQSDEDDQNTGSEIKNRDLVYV
B7: TNF receptor-associated factor 2 (Homo sapiens), Q12933 (parent)
chain: MAAASVTPPGSLELLQPGFSKTLLGTKLEAKYLCSACRNVLRRPFQAQCGHRYCSFCLASILSSGPQNCAACVHEGIYEEGISILESSSAFPDNAARREVESLPAVCPSDGCTWKGTLKEYESCHEGRCPLMLTECPACKGLVRLGEKERHLEHECPERSLSCRHCRAPCCGADVKAHHEVCPKFPLTCDGCGKKKIPREKFQDHVKTCGKCRVPCRFHAIGCLETVEGEKQQEHEVQWLREHLAMLLSSVLEAKPLLGDQSHAGSELLQRCESLEKKTATFENIVCVLNREVERVAMTAEACSRQHRLDQDKIEALSSKVQQLERSIGLKDLAMADLEQKVLEMEASTYDGVFIWKISDFARKRQEAVAGRIPAIFSPAFYTSRYGYKMCLRIYLNGDGTGRGTHLSLFFVVMKGPNDALLRWPFNQKVTLMLLDQNNREHVIDAFRPDVTSSSFQRPVNDMNIASGCPLFCPVSKMEAKNSYVRDDAIFIKAIVDLTGL
B8: Actin-associated protein FAM107A (Homo sapiens), O95990 (parent)
chain: MYSEIQRERADIGGLMARPEYREWNPELIKPKKLLNPVKASRSHQELHRELLMNHRRGLGVDSKPELQRVLEHRRRNQLIKKKKEELEAKRLQCPFEQELLRRQQRLNQLEKPPEKEEDHAPEFIKVRENLRRIATLTSEEREL

Variants of: B1
Conditions: with dydc1_human DYDC1, Q8WWB3
Sequence of dydc1_human DYDC1, Q8WWB3 (Q8WWB3 whole entry): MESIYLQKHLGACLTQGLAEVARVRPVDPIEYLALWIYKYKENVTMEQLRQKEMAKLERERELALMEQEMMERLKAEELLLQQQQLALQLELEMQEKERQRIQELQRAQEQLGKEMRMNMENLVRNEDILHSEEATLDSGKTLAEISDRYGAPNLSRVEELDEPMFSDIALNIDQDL

Variant | effect of a mutation on the interaction
N198D | with no effect
L103F | with no effect
I165M | with no effect
S50N | with no effect

Variants of: B2
Conditions: with rhno1_human RHNO1, Q9BSD3

Variant | effect of a mutation on the interaction
I277T | disrupting interaction strength

Variants of: B3
Conditions: with pf21a_human PHF21A

Variant | effect of a mutation on the interaction
R489W | with no effect
R563Q | with no effect

Variants of: B4
Conditions: with kxdl1_human KXD1, Q9BQD3

Variant | effect of a mutation on the interaction
S603G | with no effect

Variants of: B5
Conditions: with nab2_human NAB2, Q15742

Variant | effect of a mutation on the interaction
A523S | with no effect
M248K | with no effect

Variants of: B6
Conditions: with lats1_human LATS1, O95835

Variant | effect of a mutation on the interaction
R57K | disrupting interaction strength

Variants of: B7
Conditions: with traf1_human TRAF1, Q13077
Sequence of traf1_human TRAF1, Q13077 (Q13077 whole entry): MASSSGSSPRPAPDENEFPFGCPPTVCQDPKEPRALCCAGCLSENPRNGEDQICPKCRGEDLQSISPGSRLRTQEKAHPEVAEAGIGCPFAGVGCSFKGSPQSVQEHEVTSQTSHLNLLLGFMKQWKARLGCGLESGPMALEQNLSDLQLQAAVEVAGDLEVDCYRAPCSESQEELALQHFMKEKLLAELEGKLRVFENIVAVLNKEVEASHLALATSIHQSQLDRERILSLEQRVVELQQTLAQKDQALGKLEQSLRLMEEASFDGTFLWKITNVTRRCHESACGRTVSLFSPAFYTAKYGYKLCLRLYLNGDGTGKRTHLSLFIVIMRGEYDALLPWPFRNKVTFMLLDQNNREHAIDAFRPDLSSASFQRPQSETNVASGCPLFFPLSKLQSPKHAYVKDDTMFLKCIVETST

Variant | effect of a mutation on the interaction
D488N | with no effect
E276Q | with no effect
D462N | with no effect
V475I | with no effect
T134A | with no effect
K278T | with no effect
V206I | with no effect
A264T | with no effect

Variants of: B8
Conditions: with cc136_human CCDC136, Q96JN2
Sequence of cc136_human CCDC136, Q96JN2 (Q96JN2 whole entry): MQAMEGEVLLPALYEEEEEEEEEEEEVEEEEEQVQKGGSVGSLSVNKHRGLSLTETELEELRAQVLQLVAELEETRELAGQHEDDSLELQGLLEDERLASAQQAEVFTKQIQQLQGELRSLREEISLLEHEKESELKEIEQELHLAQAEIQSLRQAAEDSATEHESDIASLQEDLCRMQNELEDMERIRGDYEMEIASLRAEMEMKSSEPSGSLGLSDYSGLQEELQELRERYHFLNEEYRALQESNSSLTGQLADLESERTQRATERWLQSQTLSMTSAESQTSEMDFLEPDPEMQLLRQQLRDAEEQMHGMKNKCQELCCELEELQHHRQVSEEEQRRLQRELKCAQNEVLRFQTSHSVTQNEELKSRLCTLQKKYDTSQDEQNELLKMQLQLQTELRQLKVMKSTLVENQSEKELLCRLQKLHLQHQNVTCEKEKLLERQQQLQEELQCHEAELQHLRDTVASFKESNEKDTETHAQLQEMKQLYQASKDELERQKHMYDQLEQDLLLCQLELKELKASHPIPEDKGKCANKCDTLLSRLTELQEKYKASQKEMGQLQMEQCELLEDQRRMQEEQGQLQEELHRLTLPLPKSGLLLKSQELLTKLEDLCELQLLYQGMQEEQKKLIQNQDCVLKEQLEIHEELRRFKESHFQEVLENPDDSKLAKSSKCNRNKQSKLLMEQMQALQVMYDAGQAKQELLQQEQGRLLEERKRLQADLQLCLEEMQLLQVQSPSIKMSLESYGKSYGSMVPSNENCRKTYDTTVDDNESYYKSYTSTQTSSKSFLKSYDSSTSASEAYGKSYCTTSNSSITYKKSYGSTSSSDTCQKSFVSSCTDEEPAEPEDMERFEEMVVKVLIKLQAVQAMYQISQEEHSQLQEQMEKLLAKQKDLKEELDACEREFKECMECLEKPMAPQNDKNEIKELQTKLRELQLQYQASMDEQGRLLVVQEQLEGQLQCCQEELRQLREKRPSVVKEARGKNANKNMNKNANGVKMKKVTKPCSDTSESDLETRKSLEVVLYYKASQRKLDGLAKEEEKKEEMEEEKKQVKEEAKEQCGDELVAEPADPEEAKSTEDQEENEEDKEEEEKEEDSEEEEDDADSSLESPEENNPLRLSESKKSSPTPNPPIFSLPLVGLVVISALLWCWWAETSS

Variant | effect of a mutation on the interaction
S63R | with no effect
E141Q | disrupting interaction strength

Variants of: B8
Conditions: with traf2_human TRAF2, Q12933

Variant | effect of a mutation on the interaction
S63R | with no effect
E141Q | disrupting interaction strength
